The supplement of paper PMC11780869

Tested on: Bacillus subtilis
Test: cleaved RNA product abundance (RNA/gDNA barcode ratio) relative to median wild-type variant (ratio to wild type); higher = more accumulation of the downstream cleavage product
Method in brief: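 The B. subtilis chromosome carried reporter mRNAs, truncated aprE or tetM, containing barcoded RNase Y cleavage-site windows mutagenized using oligos with a 9% error rate. After growth in LB at 37°C from OD600 0.0003 to 0.3, cleaved RNA was gel-selected, reverse transcribed and barcode-sequenced next to genomic DNA barcodes, with UMI collapsing. Each construct's RNA:gDNA barcode ratio was scaled to the median construct with the unmutated site. That scaled ratio is reported as cleaved product abundance.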

[1] = experiment (reporter, strain, medium): exp 8a: truncated aprE reporter, strain BJT201 with 2% xylose (RNase J1 expressed), cleavage site: glnRA (positions -5 to +31 mutated)
[2] = experiment (reporter, strain, medium): exp 2b: truncated aprE reporter, strain BJT200, cleavage site: cggR-gapA (positions -7 to +36 mutated)
[3] = experiment (reporter, strain, medium): exp 4a: truncated aprE reporter, strain BJT201 with 2% xylose (RNase J1 expressed), cleavage site: cggR-gapA (positions -7 to +36 mutated)
[4] = experiment (reporter, strain, medium): exp 6: tetM reporter, strain 168, cleavage site: cggR-gapA (positions -7 to +36 mutated)

| Sequence | cleaved RNA product abundance [1] | cleaved RNA product abundance [2] | cleaved RNA product abundance [3] | cleaved RNA product abundance [4] |
| --- | --- | --- | --- | --- |
| CGACATGTCCCGCTTCTTTCATTAATCCGTTACCAACTGTTTTGCTATATAAATTTACCTTTTAAGAGGAGGAAT | 0.163 | – | – | – |
| ACAGACGAAGGAGCCGCAAATAAGTTATTAAGGGATGAATAATCCCTCAATATAATTATCTCTCACTTATTTAAA | – | 0.515 | 0.477 | – |
| ACAGACGAAGGAGCCGCAAAGAAGTTTTTAAGGGATGAATAATTCCTCAATATAAATATCTCTCACTTATTTAAA | – | 0.177 | 0.195 | – |
| ACAGACGAAGGAGCCGCAAAGAAGTAATTAATGGATGAATAATCCCTCAATATAAATATCTCTCACTTATTTAAA | – | 0.105 | 0.121 | 0.0999 |
| CGACATGTCCCGCTTCTTTCATTAATCCGTTAGCAACTGTTTTGATATATAAATTTACCTTTTAAGAGGAGGAAT | 0.397 | – | – | – |
| ACAGACGAAGGAGCCGCAAAGAAGTTATTAAGGGATGAATAATACCTCAATATACATATCTCTCACTTATTTAAA | – | – | 0.123 | – |
| CGACATGTCCCGCTTCTTTCATTAATCCGTAAGCAACTGTTTTGCTACATACATTTACCTTTTAAGAGGAGGAAT | 0.38 | – | – | – |
| CGACATGTCCCGCTTCTTTCATTAATCCGTTATCAAGTGTTTTGCTATATACATTTACCTTTTAAGAGGAGGAAT | 0.202 | – | – | – |
| CGACATGTCCCGCTTCTTTCATTAATGCGTTAGCAACTGTTTTGCTATATACATTTACATTTTAAGAGGAGGAAT | 0.652 | – | – | – |
| ACAGACGAAGGAGCCGCAAAGAAGTTATTAAGGGATGAATAATCCCTGAAAATAAATATCTCTCACTTATTTAAA | – | – | 0.615 | – |
| ACAGACGAAGGAGCCGCAAAGAAGTTATTAATGGAAGAATAATCCCTCAATATAAATATCTCTCACTTATTTAAA | – | 0.0884 | 0.114 | – |
| ACAGACGAAGGAGCCGCAATGAAGTTATTAAGGGATGTATAATCCCTCAATATAAATATCTCTCACTTATTTAAA | – | – | 1.53 | – |
| ACAGACGAAGGAGCCGCAAAGAAGTTATTAAGGGATGCATAATTCCTCAATATAAATATCTCTCACTTATTTAAA | – | – | 0.559 | – |
| ACAGACGAAGGAGCCGCAAAGAAGTTATTAACGGATGAATAATCCTTCAATATAAATATCTCTCACTTATTTAAA | – | – | 0.223 | – |
| ACAGACGAAGGAGCCGCAAAGAAGTTATTAAGGGATGTATAATCCCCCAATATAAATATCTCTCACTTATTTAAA | – | 0.205 | – | – |
| ACAGACGAAGGAGCCGCAAAGAAGTTATTAAGGGATGAATAATCATTCAATATAAATATCTCTCACTTATTTAAA | – | 0.171 | 0.295 | – |
| CGACATGTCCCGCTTCTTTCATTATTCCGTTAACAACTATTTTGCTATATACATTTACCTTTTAAGAGGAGGAAT | 0.283 | – | – | – |
| CGACATGTCCCGCTTCTTTCATTAATCCGTTACCGACTGTTTTGCTATATACATTTACCTTTTAAGAGGAGGAAT | 0.269 | – | – | – |
| ACAGACGAAGGAGCCGCAAAGAAGTTATTAAGGGATGAATAATCCCTCAAATATAAATATCTCTCACTTATTTAA | – | 0.38 | 0.539 | – |
| CGACATGTCCCGCTTCTTTCATTAATCCGTGAGCAACTGTTTTGCTATATATATTTACCTTTTAAGAGGAGGAAT | 0.87 | – | – | – |

| Sequence | cleaved RNA product abundance [1] | cleaved RNA product abundance [2] | cleaved RNA product abundance [3] | cleaved RNA product abundance [4] |
| --- | --- | --- | --- | --- |
| ACAGACGAAGGAGCCGCATAGAAGTTATTAAGGGATGAATAATCCTTCAATATAAATATCTCTCACTTATTTAAA | – | 0.516 | 0.54 | – |
| ACAGACGAAGGAGCCGCAAAGAAGTTATTAAGGGATGACTAATCCCTCTATATAAATATCTCTCACTTATTTAAA | – | – | 0.337 | – |
| ACAGACGAAGGAGCCGCAAAGAAGTTATTAAGGGATAAATAATCCCTCTATATAAATATCTCTCACTTATTTAAA | – | 0.396 | 0.326 | – |
| ACAGACGAAGGAGCCGCAAAGAAGTGATTAAGGGACGAATAATCCCTCAATATAAATATCTCTCACTTATTTAAA | – | – | 0.322 | – |
| CGACATGTCCCGCTTCTTTCATTAATCTGTTAGCAACTGTTTTGCTATATACATTCACCTTTTAAGAGGAGGAAT | 0.488 | – | – | – |
| ACAGACGAAGGAGCCGCAAAGAAGTTATTAAGGGATTAATAATCCCGCAATATAAATATCTCTCACTTATTTAAA | – | – | 0.225 | – |
| ACAGACGAAGGAGCCGCAAATAAGTTATTAAGGAATGAATAATCCCTCAATATAAATATCTCTCACTTATTTAAA | – | 0.0785 | 0.129 | – |
| ACAGACGAAGGAGCCGCAAAGAAGTGATTAACGGATGAATAATCCCTCAATATAAATATCTCTCACTTATTTAAA | – | 0.129 | 0.0991 | – |
| ACAGACGAAGGAGCCGCAAAGAAGTTTTTAAGGGATGAATAATCCATCAATATAAATATCTCTCACTTATTTAAA | – | 0.178 | 0.189 | – |
| ACAGACGAAGGAGCCGCTAAGAAGTTATTAAGGGATGCATAATCCCTCAATATAAATATCTCTCACTTATTTAAA | – | 0.968 | 0.814 | – |
| CGACATGTCCCGCTTCTTTCATTAATCCGTTAACAACTTTTTTGCTATATACATTTACCTTTTAAGAGGAGGAAT | 0.193 | – | – | – |
| ACAGACGAAGGAGCCGCAAAGAAGTTATTAAGGGTTGAATAATCCCTGAATATAAATATCTCTCACTTATTTAAA | – | – | 0.299 | – |
| ACAGACGAAGGAGCCGCAAAGAAGTTATTAAGGTATGAATAATCCGTCAATATAAATATCTCTCACTTATTTAAA | – | 0.0647 | 0.0909 | 0.0676 |
| ACAGACGAAGGAGCCGCAAAGACGTTATTAAGAGATGAATAATCCCTCAATATAAATATCTCTCACTTATTTAAA | – | 0.101 | 0.116 | – |
| ACAGACGAAGGAGCCGCAAAGAAGTTATTAAATGATGAATAATCCCTCAATATAAATATCTCTCACTTATTTAAA | – | 0.0939 | 0.1 | – |
| CGACATGTCCCGCTTCTTTCATTAAACCGTTAGCAACTGTTTTGCTATATCCATTTACCTTTTAAGAGGAGGAAT | 0.0869 | – | – | – |
| ACAGACGAAGGAGCCGCAAAGAAGTAATTAAGGGATGAATAATCCCTCAATATAAATTTCTCTCACTTATTTAAA | – | – | 0.122 | – |
| ACAGACGAAGGAGCCGCAAAGAAGTTATTAATGGTTGAATAATCCCTCAATATAAATATCTCTCACTTATTTAAA | – | 0.107 | 0.121 | – |
| ACAGACGAAGGAGCCGCAAAGAAGTTTCTAAGGGATGAATAATCCCTCAATATAAATATCTCTCACTTATTTAAA | – | 0.234 | 0.344 | – |
| ACAGACGAAGGAGCCGCAAAGAAGTTATTAAGGGATGAATAATACCTCAATATAAATACCTCTCACTTATTTAAA | – | – | 0.162 | – |

| Sequence | cleaved RNA product abundance [1] | cleaved RNA product abundance [2] | cleaved RNA product abundance [3] | cleaved RNA product abundance [4] |
| --- | --- | --- | --- | --- |
| ACAGACGAAGGAGCCGCAAAGAAGTGATTAAGGGATGAATAATCCCTCAACATAAATATCTCTCACTTATTTAAA | – | 0.293 | – | – |
| CGACATGTCCCGCTTCTTTCATTAATCCGTTAGGAACTATTTTGCTATATACATTTACCTTTTAAGAGGAGGAAT | 0.437 | – | – | – |
| ACAGACGAAGGAGCCGCAAAGAAGTTATTAAGGGATGAATAATCCCTCATCATAAATATCTCTCACTTATTTAAA | – | 0.192 | 0.115 | – |
| ACAGACGAAGGAGCCGCAAAGAATTTATTAAGGGATGAATAATGCATCAATATAAATATCTCTCACTTATTTAAA | – | – | 0.2 | – |
| CGACATGTCCCGCTTCTTTCATTAATCGGTTAGCAACTGTTTTGATATATACATTTACCTTTTAAGAGGAGGAAT | 0.356 | – | – | – |
| ACAGACGAAGGAGCCGCAAAGATGTTATTAACGGATGAATAATCCCTCAATATAAATATCTCTCACTTATTTAAA | – | 0.104 | 0.151 | – |
| ACAGACGAAGGAGCCGCAAAGAAGTTATTAAGGGAATAATAATCCCTCAATATAAATATCTCTCACTTATTTAAA | – | 0.811 | 0.934 | – |
| ACAGACGAAGGAGCCGCAAAGAAGTTATTAAGGGATGAAAAATCCCTCAGTATAAATATCTCTCACTTATTTAAA | – | – | 0.224 | – |
| ACAGACGAAGGAGCCGCAAAGAACTTATTAAGGGACGAATAATCCCTCAATATAAATATCTCTCACTTATTTAAA | – | 0.375 | 0.389 | – |
| ACAGACGAAGGAGCCGCAGAGAAGTTATTAAGGGATGAATAATCCCACAATATAAATATCTCTCACTTATTTAAA | – | – | 0.235 | – |
| ACAGACGAAGGAGCCGCAAAGAAGTTATTAAGGGATGAATAATCCCGAAATATAAATATCTCTCACTTATTTAAA | – | – | 0.323 | – |
| ACAGACGAAGGAGCCGCAAAGAAGTTATTAAGGATTGAATAATCCCTCAATATAAATATCTCTCACTTATTTAAA | – | 0.217 | 0.301 | – |
| ACAGACGAAGGAGCCGCCAAGAAGTTATTAAGGGATGAATAATCCTTCAATATAAATATCTCTCACTTATTTAAA | – | 0.518 | 0.531 | – |
| CGACATGTCCCGCTTCTTTCATTATTCCGTTAGCAACTGTCTTGCTATATACATTTACCTTTTAAGAGGAGGAAT | 1.31 | – | – | – |
| ACAGACGAAGGAGCCGCAAACAAGTTATTAAGGGATGAACAATCCCTCAATATAAATATCTCTCACTTATTTAAA | – | – | 0.451 | – |
| CGACATGTCCCGCTTCTTTCATTAATCCGTTAGGAACTGTTTTGCTATATATATTTACCTTTTAAGAGGAGGAAT | 0.367 | – | – | – |
| ACAGACGAAGGAGCCGCAAAGAAGATGTTAAGGGATGAATAATCCCTCAATATAAATATCTCTCACTTATTTAAA | – | 0.513 | 0.741 | – |
| ACAGACGAAGGAGCCGCAAAGAAGTGATTAAGGGATGAGTAATCCCTCAATATAAATATCTCTCACTTATTTAAA | – | – | 0.285 | – |
